Substitutions are numbered along the chain they refer to.
T1: LZTR1 R810W-FLAG (human, UniProt Q8N653 1-840)
T1 construct: Stably expressed in U87 cells by lentivirus; also called LZTR1-FLAG-R810W; LZTR1 RW; not shown: FLAG tag
T1 sequence (looked up): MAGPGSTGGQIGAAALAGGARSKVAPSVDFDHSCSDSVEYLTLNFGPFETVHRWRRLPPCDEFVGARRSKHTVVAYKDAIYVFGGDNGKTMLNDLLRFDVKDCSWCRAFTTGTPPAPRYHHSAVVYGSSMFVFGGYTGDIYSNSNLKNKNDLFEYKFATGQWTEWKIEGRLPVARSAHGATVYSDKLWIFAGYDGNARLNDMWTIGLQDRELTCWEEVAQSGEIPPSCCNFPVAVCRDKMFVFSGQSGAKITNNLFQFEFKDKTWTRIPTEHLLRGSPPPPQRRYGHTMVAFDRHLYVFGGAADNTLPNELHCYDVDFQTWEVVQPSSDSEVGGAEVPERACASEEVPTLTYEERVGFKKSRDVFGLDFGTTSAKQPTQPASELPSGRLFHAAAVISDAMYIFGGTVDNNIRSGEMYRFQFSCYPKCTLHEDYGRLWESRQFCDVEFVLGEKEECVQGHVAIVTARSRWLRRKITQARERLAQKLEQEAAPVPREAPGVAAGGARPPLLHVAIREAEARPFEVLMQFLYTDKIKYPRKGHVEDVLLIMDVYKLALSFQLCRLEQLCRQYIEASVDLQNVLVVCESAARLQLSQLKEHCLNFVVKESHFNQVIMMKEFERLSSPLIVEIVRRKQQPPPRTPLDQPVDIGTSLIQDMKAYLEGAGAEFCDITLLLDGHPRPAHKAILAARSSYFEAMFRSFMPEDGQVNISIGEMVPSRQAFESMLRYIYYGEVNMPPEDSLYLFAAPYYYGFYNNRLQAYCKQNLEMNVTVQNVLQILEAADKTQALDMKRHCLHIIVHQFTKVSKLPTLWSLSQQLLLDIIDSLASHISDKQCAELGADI

T2: LZTR1-FLAG (human, UniProt Q8N653 1-840)
T2 construct: Expressed in HEK 293T, HeLa or U87 cells; used as cell lysate; also called LZTR1 wild type-FLAG; LZTR1 WT; not shown: FLAG tag at the C-terminus
T2 sequence (looked up): T1 sequence (looked up) with W810R

B1: RASA3 (other, human, UniProt Q14644 2-834, looked up)
chain: AVEDEGLRVFQSVKIKIGEAKNLPSYPGPSKMRDCYCTVNLDQEEVFRTKIVEKSLCPFYGEDFYCEIPRSFRHLSFYIFDRDVFRRDSIIGKVAIQKEDLQKYHNRDTWFQLQHVDADSEVQGKVHLELRLSEVITDTGVVCHKLATRIVECQGLPIVNGQCDPYATVTLAGPFRSEAKKTKVKRKTNNPQFDEVFYFEVTRPCSYSKKSHFDFEEEDVDKLEIRVDLWNASNLKFGDEFLGELRIPLKVLRQSSSYEAWYFLQPRDNGSKSLKPDDLGSLRLNVVYTEDHVFSSDYYSPLRDLLLKSADVEPVSASAAHILGEVCREKQEAAVPLVRLFLHYGRVVPFISAIASAEVKRTQDPNTIFRGNSLASKCIDETMKLAGMHYLHVTLKPAIEEICQSHKPCEIDPVKLKDGENLENNMENLRQYVDRVFHAITESGVSCPTVMCDIFFSLREAAAKRFQDDPDVRYTAVSSFIFLRFFAPAILSPNLFQLTPHHTDPQTSRTLTLISKTVQTLGSLSKSKSASFKESYMATFYEFFNEQKYADAVKNFLDLISSSGRRDPKSVEQPIVLKEGFMIKRAQGRKRFGMKNFKKRWFRLTNHEFTYHKSKGDQPLYSIPIENILAVEKLEEESFKMKNMFQVIQPERALYIQANNCVEAKDWIDILTKVSQCNQKRLTVYHPSAYLSGHWLCCRAPSDSAPGCSPCTGGLPANIQLDIDGDRETERIYSLFNLYMSKLEKMQEACGSKSVYDGPEQEEYSTFVIDDPQETYKTLKQVIAGVGALEQEHAQYKRDKFKKTKYGSQEHPIGDKSFQNYIRQQSETSTHSI
B2: SHKBP1 (other, human, UniProt Q8TBC3 2-707, looked up)
chain: AAAATAAEGVPSRGPPGEVIHLNVGGKRFSTSRQTLTWIPDSFFSSLLSGRISTLKDETGAIFIDRDPTVFAPILNFLRTKELDPRGVHGSSLLHEAQFYGLTPLVRRLQLREELDRSSCGNVLFNGYLPPPVFPVKRRNRHSLVGPQQLGGRPAPVRRSNTMPPNLGNAGLLGRMLDEKTPPSPSGQPEEPGMVRLVCGHHNWIAVAYTQFLVCYRLKEASGWQLVFSSPRLDWPIERLALTARVHGGALGEHDKMVAAATGSEILLWALQAEGGGSEIGVFHLGVPVEALFFVGNQLIATSHTGRIGVWNAVTKHWQVQEVQPITSYDAAGSFLLLGCNNGSIYYVDVQKFPLRMKDNDLLVSELYRDPAEDGVTALSVYLTPKTSDSGNWIEIAYGTSSGGVRVIVQHPETVGSGPQLFQTFTVHRSPVTKIMLSEKHLISVCADNNHVRTWSVTRFRGMISTQPGSTPLASFKILALESADGHGGCSAGNDIGPYGERDDQQVFIQKVVPSASQLFVRLSSTGQRVCSVRSVDGSPTTAFTVLECEGSRRLGSRPRRYLLTGQANGSLAMWDLTTAMDGLGQAPAGGLTEQELMEQLEHCELAPPAPSAPSWGCLPSPSPRISLTSLHSASSNTSLSGHRGSPSPPQAEARRRGGGSFVERCQELVRSGPDLRRPPTPAPWPSSGLGTPLTPPKMKLNETSF
B3: RETSAT (other, human, UniProt Q6NUM9 19-610, looked up)
chain: KVYLGLFSGSSPNPFSEDVKRPPAPLVTDKEARKKVLKQAFSANQVPEKLDVVVIGSGFGGLAAAAILAKAGKRVLVLEQHTKAGGCCHTFGKNGLEFDTGIHYIGRMEEGSIGRFILDQITEGQLDWAPLSSPFDIMVLEGPNGRKEYPMYSGEKAYIQGLKEKFPQEEAIIDKYIKLVKVVSSGAPHAILLKFLPLPVVQLLDRCGLLTRFSPFLQASTQSLAEVLQQLGASSELQAVLSYIFPTYGVTPNHSAFSMHALLVNHYMKGGFYPRGGSSEIAFHTIPVIQRAGGAVLTKATVQSVLLDSAGKACGVSVKKGHELVNIYCPIVVSNAGLFNTYEHLLPGNARCLPGVKQQLGTVRPGLGMTSVFICLRGTKEDLHLPSTNYYVYYDTDMDQAMERYVSMPREEAAEHIPLLFFAFPSAKDPTWEDRFPGRSTMIMLIPTAYEWFEEWQAELKGKRGSDYETFKNSFVEASMSVVLKLFPQLEGKVESVTAGSPLTNQFYLAAPRGACYGADHDLGRLHPCVMASLRAQSPIPNLYLTGQDIFTCGLVGALQGALLCSSAILKRNLYSDLKNLDSRIRAQKKKN
B4: SL C39A14 (other, human, UniProt Q15043 31-492, looked up)
chain: SSLGAPAISAASFLQDLIHRYGEGDSLTLQQLKALLNHLDVGVGRGNVTQHVQGHRNLSTCFSSGDLFTAHNFSEQSRIGSSELQEFCPTILQQLDSRACTSENQENEENEQTEEGRPSAVEVWGYGLLCVTVISLCSLLGASVVPFMKKTFYKRLLLYFIALAIGTLYSNALFQLIPEAFGFNPLEDYYVSKSAVVFGGFYLFFFTEKILKILLKQKNEHHHGHSHYASESLPSKKDQEEGVMEKLQNGDLDHMIPQHCSSELDGKAPMVDEKVIVGSLSVQDLQASQSACYWLKGVRYSDIGTLAWMITLSDGLHNFIDGLAIGASFTVSVFQGISTSVAILCEEFPHELGDFVILLNAGMSIQQALFFNFLSACCCYLGLAFGILAGSHFSANWIFALAGGMFLYISLADMFPEMNEVCQEDERKGSILIPFIIQNLGLLTGFTIMVVLTMYSGQIQIG
notes: Printed as SL C39A14; read as SLC39A14
B5: SCYL1 (other, human, UniProt Q96KG9 1-808, looked up)
chain: MWFFARDPVRDFPFELIPEPPEGGLPGPWALHRGRKKATGSPVSIFVYDVKPGAEEQTQVAKAAFKRFKTLRHPNILAYIDGLETEKCLHVVTEAVTPLGIYLKARVEAGGLKELEISWGLHQIVKALSFLVNDCSLIHNNVCMAAVFVDRAGEWKLGGLDYMYSAQGNGGGPPRKGIPELEQYDPPELADSSGRVVREKWSADMWRLGCLIWEVFNGPLPRAAALRNPGKIPKTLVPHYCELVGANPKVRPNPARFLQNCRAPGGFMSNRFVETNLFLEEIQIKEPAEKQKFFQELSKSLDAFPEDFCRHKVLPQLLTAFEFGNAGAVVLTPLFKVGKFLSAEEYQQKIIPVVVKMFSSTDRAMRIRLLQQMEQFIQYLDEPTVNTQIFPHVVHGFLDTNPAIREQTVKSMLLLAPKLNEANLNVELMKHFARLQAKDEQGPIRCNTTVCLGKIGSYLSASTRHRVLTSAFSRATRDPFAPSRVAGVLGFAATHNLYSMNDCAQKILPVLCGLTVDPEKSVRDQAFKAIRSFLSKLESVSEDPTQLEEVEKDVHAASSPGMGGAAASWAGWAVTGVSSLTSKLIRSHPTTAPTETNIPQRPTPEGVPAPAPTPVPATPTTSGHWETQEEDKDTAEDSSTADRWDDEDWGSLEQEAESVLAQQDDWSTGGQVSRASQVSNSDHKSSKSPESDWSSWEAEGSWEQGWQEPSSQEPPPDGTRLASEYNWGGPESSDKGDPFATLSARPSTQPRPDSWGEDNWEGLETDSRQVKAELARKKREERRREMEAKRAERKVAKGPMKLGARKLD
B6: SHCBP1 (other, human, UniProt Q8NEM2 2-672, looked up)
chain: ADGSLTGGGLEAAAMAPERMGWAVEQELASLEKGLFQDEDSCSDCSYRDKPGSSLQSFMPEGKTFFPEIFQTNQLLFYERFRAYQDYILADCKASEVQEFTAEFLEKVLEPSGWRAVWHTNVFKVLVEITDVDFAALKAVVRLAEPYLCDSQVSTFTMECMKELLDLKEHRLPLQELWVVFDDSGVFDQTALAIEHVRFFYQNIWRSWDEEEEDEYDYFVRCVEPRLRLHYDILEDRVPSGLIVDYHNLLSQCEESYRKFLNLRSSLSNCNSDSEQENISMVEGLKLYSEMEQLKQKLKLIENPLLRYVFGYQKNSNIQAKGVRSSGQKITHVVSSTMMAGLLRSLLTDRLCQEPGEEEREIQFHSDPLSAINACFEGDTVIVCPGHYVVHGTFSIADSIELEGYGLPDDIVIEKRGKGDTFVDCTGADIKISGIKFVQHDAVEGILIVHRGKTTLENCVLQCETTGVTVRTSAEFLMKNSDLYGAKGAGIEIYPGSQCTLSDNGIHHCKEGILIKDFLDEHYDIPKISMVNNIIHNNEGYGVVLVKPTIFSDLQENAEDGTEENKALKIQTSGEPDVAERVDLEELIECATGKMELCARTDPSEQVEGNCEIVNELIAASTQKGQIKKKRLSELGITQADDNLMSQEMFVGIVGNQFKWNGKGSFGTFLF

Target: T1, LZTR1 R810W-FLAG
Assay: IP/MS, LZTR1 R810W-FLAG, U87
Procedure, shortened: (§1)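 Extracted peptides in 3% acetonitrile/0.1% formic acid ran on a 50 cm C18 column into an Orbitrap Fusion, with MaxQuant identification and spectral counting.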

Binding result, binds:
B1
B2
B3
B4
B5
B6

Target: T2, LZTR1-FLAG
Assay: IP/MS, LZTR1 wild type-FLAG, U87
Procedure, shortened: as §1

Binding result, binds:
B1
B2
B3
B4
B5
B6

Reference: patent US20250262210A1 (TRUSTEES OF COLUMBIA UNIVERSITY IN THE CITY OF NEW YORK, published 2025)
